Measured values published in patent US20100266502A1 (Chugai, published 2010).

Key:
[1] = molecular target: T1, active-form HB-EGF protein (R&D Systems, Inc., 259-HE) (human, UniProt Q99075 63-148); experiment: cell-based or functional assay
[2] = molecular target: T1, active-form HB-EGF protein (R&D …); experiment: ELISA, purified antibody on plate coated with 1 µg/mL HB-EGF; given as ED50
[3] = molecular target: T1, active-form HB-EGF protein (R&D …); experiment: competition ELISA: inhibition of HB-EGF (50 ng/mL) binding to immobilised EGFR-Fc
[4] = molecular target: T1, active-form HB-EGF protein (R&D …); experiment: ELISA, purified antibody on plate coated with 1 µg/mL HB-EGF; printed as ED50 (antibody concentration that gave 50% binding)
[5] = molecular target: T1, active-form HB-EGF protein (R&D …); experiment: cell-based or functional assay; remark: listed apart in the source

T1 sequence (Q99075 63-148 limits assumed): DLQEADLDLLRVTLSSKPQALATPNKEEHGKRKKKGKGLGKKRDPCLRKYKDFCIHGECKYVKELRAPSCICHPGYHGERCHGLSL

Binder	Inhibition of HB-EGF-dependent growth (EC50, nmol/L) [1] [nmol/L]	EC50 [2] [nM]	EC50 [3] [nM]	EC50 [4] [nM]	EC50 (nM), growth-inhibiting effect on EGFR_Ba/F3 cells [5] [nM]
HE-39 (antibody, V domains shown) VH: EVQLQQSGPELMKPGASVKMSCKASGYIFTDYYMNWVKQSHGKSLEWIGRVNPNNGGTSYSQKFKDKATLTVDKSLNTAYMQVNSLTSEDSAVYYCARIYYGGSDWGQGTTLTVSS VL: EIVMTQTPLSLSVTIGQPASISCKSSQSLLYTTGKTYLNWLQQRPGQAPKHLMYQVSKLVPGIPDRFSGSGSETDFTLKISRVEAEDLGVYYCLQGTYYPHTFGSGTKLEIK	0.83	0.016	0.86		
HC-15 (antibody, V domains shown) VH: EVQLQQSGPELVKPGASVKISCKASGYSFTGYYMHWVKQSPEKRLEWIGEINPRTGITTYNQKFKAKATLTVDKSSSTAYMQLKSLTSEDSAVYYCARVGSSGPFTYWGQGTLVTVSA VL: DIVMTQSPSSLSVSAGDKVTMSCKSSQSLLNSRNQKNYLAWYQQKPWQPPKLLIYGASTRESGVPDRFTGSGSGTDFTLTISSVQAEDLAVYYCQNDYSYPFTFGTGTKLEIK	2.06	0.65	0.52	0.2	3.8
